In article PMC5419422 (Science immunology, 2017):

Target: recombinant human HIS-tagged CFP (human, UniProt P27918 28-469)
Test: SPR

recombinant human HIS-tagged CFP, sequence (P27918 28-469): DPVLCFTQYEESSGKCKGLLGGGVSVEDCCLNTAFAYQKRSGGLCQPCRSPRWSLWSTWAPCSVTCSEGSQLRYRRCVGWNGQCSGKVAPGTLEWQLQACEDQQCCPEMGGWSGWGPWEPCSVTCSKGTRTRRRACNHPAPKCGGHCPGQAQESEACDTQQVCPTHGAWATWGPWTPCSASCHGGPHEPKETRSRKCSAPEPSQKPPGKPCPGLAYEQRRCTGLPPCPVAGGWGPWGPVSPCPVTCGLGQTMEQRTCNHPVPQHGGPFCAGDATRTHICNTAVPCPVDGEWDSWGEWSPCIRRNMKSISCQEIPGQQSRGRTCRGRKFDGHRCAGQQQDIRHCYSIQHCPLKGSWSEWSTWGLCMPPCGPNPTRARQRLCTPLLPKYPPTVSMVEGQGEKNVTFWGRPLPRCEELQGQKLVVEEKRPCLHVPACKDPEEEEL

- binding result: binds
B1: mouse NKp46-Fc (Fc fusion)
chain: QRINTEKETLPKPIIWAKPSIMVTNGNSVNIWCQGAQSASEYQLYFEGSFFALERPKPSRSMNKVRFFISQMTSHTAGIYTCFYQSGELWSKSSNPLKLVVTGLYDTPNLWVYPQPEVTLGENVTFFCQLKTATSKFFLLKERGSNHIQNKYGNIQAEFPMGPVTRAHRGTYRCFGSYNDYAWSFPSEPVTLLITGGVENSSLAPTDPTSSLDYWEFDLSTNESGLQKDSAFWDHTTQN
